1 substance from article PMC6739165 can be followed below.

In the assay the target is mCerulean-Hsp70 (UniProt P0DMV8). In words: FRET or BRET.
Sequence of UniProt P0DMV8 (P0DMV8 whole entry): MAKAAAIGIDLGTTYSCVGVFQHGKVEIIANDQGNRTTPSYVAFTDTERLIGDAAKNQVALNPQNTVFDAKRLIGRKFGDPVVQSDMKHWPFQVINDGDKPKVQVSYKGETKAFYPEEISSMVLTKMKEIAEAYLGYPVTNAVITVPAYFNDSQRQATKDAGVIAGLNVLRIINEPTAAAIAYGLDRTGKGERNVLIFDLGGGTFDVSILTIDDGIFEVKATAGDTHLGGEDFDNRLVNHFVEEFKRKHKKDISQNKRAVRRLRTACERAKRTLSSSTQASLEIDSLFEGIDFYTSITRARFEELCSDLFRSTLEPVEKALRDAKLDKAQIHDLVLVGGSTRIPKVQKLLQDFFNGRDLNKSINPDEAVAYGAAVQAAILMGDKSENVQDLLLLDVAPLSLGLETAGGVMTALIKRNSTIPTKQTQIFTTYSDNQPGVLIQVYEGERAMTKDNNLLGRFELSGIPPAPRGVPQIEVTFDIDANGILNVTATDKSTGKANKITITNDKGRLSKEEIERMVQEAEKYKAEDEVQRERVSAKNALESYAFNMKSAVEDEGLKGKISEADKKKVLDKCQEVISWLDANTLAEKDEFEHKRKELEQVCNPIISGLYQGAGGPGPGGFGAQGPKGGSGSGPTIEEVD

In the case of “mVenus-OLA1 (from UniProt Q9NTK5 1-396) (natural protein)”, the percent FRET efficiency was found to be 33%.
